Measurements: patent publication US5912325A, “Biologically active porcine somatotropin polypeptides and methods of using the same” (American Cyanamid Company, priority 1994, dated 1999)

System: hypox rats
Experiment: Biological assay for growth-promoting activity: net weight gain of hypophysectomized rats
Assay type: in vivo, rat
Details: 5 ug/day pST alone, day 0 to 4 and day 7 to 10, versus untreated rats, FIG. 4
Procedure: Hypox rats are injected subcutaneously with pST (5 ug/day) with or without antibody (2 mg/day) for 5 consecutive days and the net weight gain is recorded. Immune antibodies are prepared from two pigs that had been immunized with pST (54-95) and the control antibody is prepared from a pooled sera of non-immunized pigs. *,p<0.05; **,p<0.01.
In a study similar to that shown in FIG. 3, except antibody is injected at a dose of 0.5 mg/day and for a longer period of time. *,p<0.05; **,p<0.01; ***,p<0.001.
Hypophysectomized female Sprague-Dawley rats, 21 days of age and weighing 50-64 g, are obtained from Taconic Farm, Germantown, N.Y. and used to assay for Growth Hormone (GH). Female crossbred swine (Duroc x Yorkshire x Hampshire), 3-5 months of age, weighing 30-50 kg, are obtained from the breeding colony of American Cyanamid Co., Princeton, N.J. and used for the production of antibodies.
Hypophysectomized rats are randomly allocated to groups of eight. Antibody mixed with 5 ug pST at room temperature for 1 hour is administered subcutaneously in the neck region of experimental rats. All animals are treated daily for various periods of time and their growth is recorded as net weight gain. […]
The growth enhancing effect of these antibodies are evaluated in hypox rats. […] Net weight gains are recorded. […]

B1: pST: single chain polypeptide of 191 amino acids, growth hormone native to swine (protein, UniProt P01248 27-216, looked up)
Somatotropin: FPAMPLSSLFANAVLRAQHLHQLAADTYKEFERAYIPEGQRYSIQNAQAAFCFSETIPAPTGKDEAQQRSDVELLRFSLLLIQSWLGPVQFLSRVFTNSLVFGTSDRVYEKLKDLEEGIQALMRELEDGSPRAGQILKQTYDKFDTNLRSDDALLKNYGLLSCFKKDLHKAETYLRVMKCRRFVESSCAF
- growth (net weight gain): marked growth as compared to untreated rats
